Laboratory results reported in the DeepSol protein solubility set.

Assay: soluble on expression in E. coli; label from the status in PepcDB or PDB records

Row | Sequence | soluble on expression in E. coli
1 | MINVEQVFALDIGTRLVMGLIMEKAPGGYHIIARAQTEHRQRAMYDGQIHDIEEVAQAVQRVKEELEEKIKGKLHYVSVAAAGRALKTAVATAQKSELIPMIWEREDIFALEMEAVQQALREIQAEDEIIPYHCVGYSTIESLLEGQNLSSLSGQRGKEAQVKVIATFLPRTVIDGLTRVISKVGLEMRELTLEPIAAGRAAIPPDMRRMNLALVDVGAGTSDIALTKSGSFFAYGMVPMAGDEITERICQHFLVDFQTGEKIKRSLNTKTKVTFTDFLGMKTTVNKEEVLEQIQPVVLELAQKLADEILRLNQGNPHAIILIGGGSQTPLLAEVLSDLLELPRNRVGIQVRERIQGVSGEKSLKGPDAITPIGIGISTIEGEGLQYFSVHVNDLTVQIFELQLATVSDALLAAGITPRLLVGRPGSALTVELNGDIKVSKGQFSKPAQFFLNGEEVKLDHELKPGDKIQFIPAQDGENAQATFADLVPAIPEKKIKVNGESVVFTAQIFCNGRPVTRDGDVPDGAKITVFQNQTLKDLLHFLNDKQYSLSEIRYKINGEERVIPIHKEFYINQQKVALERMIKDGDDLVILVKEVYIKDLQLKPTPMVFYVNGQEVEYPPQIFRILSRGRVLSDQEKVVDGMELSVEGYDTMPLLSELLPYVNIPQDVPANARLSLKRNNQEAEFTTPLIPGDRIEIHWEQVASALLEHHHHHH | soluble
2 | MSAEAADREAVSGSRPCTPPQTSWFEFLLNPSLLEQHLHSPHPDPSPVQLIFQFLEQASKPSVNEQNQVQPPVDNRRNRTLKLMALKVAAHLRWDLNMLEKGLTIPVLNMLLNELLCVSHVPPGVKHVDLDLSSLPPTTAMAVVFYNRWAIRTIVLSSFPEKQTKPGPHQLNMMNMLQQEKEHTENILSVLREQATDSIMVLEGALSIKKDFYIHL | not soluble
3 | MGSDKIHHHHHHMIKLKTFGSFTVGNDISSVQEGAWRSEKLEKLFVYLAMNRNRGVCIEDISEAIWQVEEETDNPVGALKNLAYRLRKALRDASFDEECIVSVRGGLYKWNDDVEVTIDVEEFDRYINEAEMAFCRSKETAIESYEKAIALYHGDFLPLRTDTHWFMTLNAFYHSRYVNTVKALAKLYIDTGCYEKLEQLCIRAIVYERSDEQIYSYLIMARMRTKKVQMAFDTYETAKAIMDKDLGVRKTVMLNKVYEELLSVTKGVSSYNIDEVKEDINEESMEGVFMCGYPVFKEIYHLEVRKSARSTIPESLVLVTVVPMYSSQPDKNHSQMKDSMHTLERALRKCLRVGDVAAKYSDSQYIVLLSKCSCDTASDVMKRIIDRFNHTCDTHSNMTIHFDIEPVSCYSSFVSDK | not soluble
4 | GMKVTNYQGATIDPYSKGLGMVPGTSIQLTDAARLEWNLLNEDVSLPAAVLYADRVEHNLKWMQAFVAEYGVKLAPHGKTTMAPQLFRRQLETGAWGITLATAHQVRAAYHGGVSRVLMANQLVGRRNMMMVAELLSDPEFEFFCLVDSVEGVEQLGEFFKSVNKQLQVLLELGVPGGRTGVRDAAQRNAVLEAITRYPDTLKLAGVELYEGVLKEEHEVREFLQSAVAVTRELVEQERFARAPAVLSGAGSAWYDVVAEEFVKASETGKVEVVLRPGCYLTHDVGIYRKAQTDIFARNPVAKKMGEGLLPALQLWAYVQSIPEPDRAIIGLGKRDSAFDAGMPEPARHYRPGNEAPRDIAASEGWEIFGLMDQHAYLRIPAGADLKVGDMIAFDISHPCLTFDKWRQVLVVDPAYRVTEVIETFF | soluble
5 | YKEEDSTVSILPTSLPQIHRANMLAQGSPAASKISPLVTKKSKTRWHFGIRSRSYPLDVMGEIYIALKNLGAEWAKPSEEDLWTIKLRWKYDIGNKTNTNEKIPDLMKMVIQLFQIETNNYLVDFKFDGWESSYGDDTTVSNISEDEMSTFSAYPFLHLTTKLIMELAVNS | soluble
6 | MTRIAIVGAGPAGLSLAYFLKGSRKVEATVYESMPEPGLKPCAWGLITGIENIIPIPNETIISEIRGFRIYLDNKLVFDIRTDNKLGYIIDKPLFLKRLSQEVNVEFNSKVVKKDDKYYINDKSLDHDKVIFATGHYSVSKSMSIPAIQYITDYEIDKEVVEFYFYSGFLGYAWVFPDREGSKIGIGGYAEVPELKERLKQILKGRIRTFHGARVTDYGVIEDRLDGNYTGEALGTVYAITGEGIRPSIISSKILADSILNRKDFKKEFKKSKLYWSLNWHAKIIKMTKENDPGTARLSKALLNNDPQLILKFAIGEFNRVDLIKIFGRSLILEHHHHHH | soluble
7 | MPNTLKRLIPDPEVIKLQQLLSSNGYFEEIKPSHGLFDGITFDNAVLFQLQHIYKDGDPLKPDGVIGAKTWWALKNPSGEKQRNHLSASIPAGLTTKRHQLIELIIEEHSKPVFEVPDGSNRSPDIDGYWGNTGVIGLAWCCAFVSWVLKEVTDSYPIASTHHLGVQRMWRTAKRLNMTTEIPKPGDIFVQLFAGGKGHTGFVVAVTEDGETIYTCEGNCGNRLKIGKRSNNSELHFIDCLQDNQTLDFERMAFDVNSTIDNTTRLEHHHHHH | not soluble
8 | ASLIEDIDKKHLVLLRDGRTLIGFLRSIDQFANLVLHQTVERIHVGKKYGDIPRGIFVVRGENVVLLGEI | not soluble
9 | MGSSHHHHHHSSGLVPRGSHMTDKLTSLRQYTTVVADTGDIAAMKLYQPQDATTNPSLILNAAQIPEYRKLIDDAVAWAKQQSNDRAQQIVDATDKLAVNIGLEILKLVPGRISTEVDARLSYDTEASIAKAKRLIKLYNDAGISNDRILIKLASTWQGIRAAEQLEKEGINCNLTLLFSFAQARACAEAGVFLISPYVGEILDWYKANTDKKEYAPAEDPGVVSVSEIYQYYKEHGYETVVMGASFRNIGEILELAGCDRLTIAPTLLKELAESEGAIERKLSYTGEVKARPARITESEFLWQHNQDPMAVDKLAEGIRKFAIDQEKLEKMIGDLL | soluble
10 | SNRKKLQKLTDTLTKNCKHFNKFEVNCLIKLFYDLVGGVERQGLVVGLDRNAFRNILHVTFGMTDDMIMDRVFRGFDKDNDGCVNVLEWIHGLSLFLRGSLEEKMKYCFEVFDLNGDGFISKEEMFHMLKNSLLKQPSEEDPDEGIKDLVEITLKKMDHDHDGKLSFADYELAVREETLLLEAFGPCLPDPKSQMEFEAQVFKDPNEFNDM | soluble
11 | MAHHHHHHMTSLTEEHEILIDEPPQFTAAAEVIAVGAEEPTVATPEEFTSAQEAGAFLQTPVGTPPATPTSVPTTPSPNEMAAKHARKRWRMEQLALQESVKVVESEPISRRGHSRKAEMSEFAITKAATLNTAPTLLSMSPNIIDTNVTMLGTKRVPLDNFLKVTVLHPKVTPVNLKLEFIDPVLEPVQLSRHQLGNRVTPNEGEGGGMSVKKKRGRKPLVASPSIEEAKAVESGYNAE | not soluble
12 | MPKSKSQKNKLRPRDSKGRFTPLAKAKRTVVSRSRSRSRSASRGARQSRSVGRPMSRRNSVRSISTHTAKSPSLVLVISGSPSPRRRRPSTRRSSSRRSVVRSVSRGSKGRRSSSRGSVYGRTGRSRSSKRSRSRSRPRTRSGSRSSSRSRSGSRRSSRRRSRHRSSSKARGRRASTAKKTPAKRRSRSRSQQKVKRSMSRKG | soluble
13 | MGSDKIHHHHHHMLMPDAPSNTESLPTSVDLAGEYQASGVAEILDELDRELVGLKPVKQRIRETAALLLVERARRAMGLSHEPPSLHMSFTGNPGTGKTTVALRMANLLHRLGYIRKGHLVSVTRDDLVGQYIGHTAPKTKEILKKAMGGVLFIDEAYYLYRPDNERDYGQEAIEILLQVMENNRDDLVVILAGYADRMDRFFESNPGFRSRIAHHIDFPDYDNGELLSIAESMLSRQGYRFDSKASAVMSDYIARRRRQPHFANARSIRNALDRARLRQANRLFEESAGPVDAEQLSTITARDIAASRVFATVEPSHTETSP | not soluble
14 | MAKGVAVLSSSEGVAGTILFTQEGDGPTTVTGNISGLKPGLHGFHVHALGDTTNGCMSTGPHFNPAGKEHGSPEDETRHAGDLGNITVGDDGTACFTIVDKQIPLTGPHSIIGRAVVVHADPDDLGKGGHELSKSTGNAGGRIACGIIGLQG | soluble
15 | MGSDKIHHHHHHMTPDEVLRIASMHAVRGEYETALSLLRQLHAFIPDDIQVMRALGIVLANSGDHEAALPFLHQVAQRQCTPDNVMGLIKVLGAMRRFPDIDHVCSVVWPHIGDELAFLGEWGYANLLMERFDRALEILGKALALDPHFRPALHNGASALVRSGRGEEAVSMYSRLGRAWASTEAVARDFVGEYAALSQSYDDNPLHHYFSARLVRLVQDARPEAMPDSVLELGCGSGLLSQALPQKPDRLVGIDISPDMLARARTRGAYSSLLCGDLVEVMAGLEEPFDAVMSAGVLCYLPDLRKVFANVARLLSPGGVFAFSVDPVGDDMEIAEMEPGEFAHSRPYLRALAAETGLTEIRIDIDLHRGAPGFWCSFGKAG | not soluble
16 | MAIDNIKAYVHLSDADIEEIGRRLDQIKAEVTQSLGARDVAYIKRLIRTQRSLEAAGRFALLFAGNKKCWWLGTGLLSTAKILENLEIGHNVLHGQWDWMNDPEIHSTTWEWDIVCPSSQWMHSHNFVHHTYTNVLGMDNDVGYGILRVTRDRKWTPLHAFQPAVNTVLAAMFQWAVGYYDVELGRYLTKRADWNDTKDKFWETTNKAGRQLARDYVFYPALARKAFPQAVKANAVANLVRSVWAYSVIFCGHFPDEAETFTKEQFKNEDHNQWYLRQMLGSANFYGGKLLTIMSGNLNYQIEHHLFPDMPSNRLAEVGEKVRALCDEYDLPYNVDSFPAQLFKVQKTLLKLTLPNKYLVASPDNAPEVRSNRAFSQNPEIENQLAGGSNGSGLRTGLKLLKRLRPSIKDAILIYSGRKPRGNQQR | not soluble
17 | MAHHHHHHKNTAKTAPNHDRIKNLIAKLNNSKDEDKKKNSPNGQINRTGDVYAKNELINKKKKHINFETFLRIFLETYEEPLSVDELITSFEFFDKEKSGYLDEEKVRFILKNSEERLADEDMKLFLNSLNLRDKDKIDYVMLAKRLKNVA | soluble
18 | MSLYLWNIQISSAFLEVISLYEVTLRNTLVKALEPNYRQYSILNDNFIRALRHETREALIVAVNKVSLNSHKYSAVRGAHGMIQPLKIDPRDVPVGKVVAELNFVFWENMLSKTHSSRWKAHYKEAFPNLVVEPNIGIECQIARIHQITGKVRELRNRICHHEPIFDENKINLSELYTQIKEVLNYISRLDKYTKEGHHHHHH | not soluble
19 | MGSDKIHHHHHHMIIQRVVLNSRPGKNGNPVAENFRVEEFSLLDALNEGQVQVRTLYLSVDPYMRCKMNEDTGTDYLAPWQLAQVADGGGIGIVEESKHQKLAKGDFVTSFYWPWQTKAILDGNGLEKVDPQLVDGHLSYFLGAIGMPGLTSLIGVQEKGHISAGSNQTMVVSGAAGACGSLAGQIGHLLGCSRVVGICGTQEKCLFLTSELGFDAAVNYKTGNVAEQLREACPGGVDVYFDNVGGDISNTVISQMNENSHIILCGQISQYNKDVPYPPPLPPAVEAIRKERNITRERFTVLNYKDKFEPGILQLSQWFKEGKLKVKETVAKGLENMGVAFQSMMTGGNVGKQIVCISEDSSL | soluble
20 | MGHHHHHHSHKPDEDDANRLGEKVILREQVKELFNEKYGEALGLNRPVLVPYKLIRDSPDAVEVTGLPDDIPFRNPNTYDIHRLEKILKAREHVRMVIINQLQPFAEICNDAKVPAKDSSIPKRKRKRVSEGNSVSSSSSSSSSSSSNPDSVASANQISLVQWPMYMVDYAGLNVQLPGPLNY | not soluble
21 | MTQMKIFVIGAHGQIGKKIVSKLVAQGDQVYAGIRQPEQAEAFEDAGAQPVQFNLMAQPEDLALAFNGMDAIVFAAGSGGQTGYDMTLMIDLDGAVKSMVAAKIAGVKRYVIISAEFTPDRSRWPRALQPYYVAKYYADEWLKNRTQLDYTILQPGTLINDAGTGKVTVNPDVGGEITRDDVATFTVQTLHTPATVGKTIALINGDTPISKAVQQA | not soluble
